Assay results from patent US20200109196A1 (MOGAM INSTITUTE FOR BIOMEDICAL RESEARCH, published 2020).

Molecular target: T1, recombinant CEACAM1 protein (UniProt P13688 35-428, limits assumed)
T1 sequence (looked up): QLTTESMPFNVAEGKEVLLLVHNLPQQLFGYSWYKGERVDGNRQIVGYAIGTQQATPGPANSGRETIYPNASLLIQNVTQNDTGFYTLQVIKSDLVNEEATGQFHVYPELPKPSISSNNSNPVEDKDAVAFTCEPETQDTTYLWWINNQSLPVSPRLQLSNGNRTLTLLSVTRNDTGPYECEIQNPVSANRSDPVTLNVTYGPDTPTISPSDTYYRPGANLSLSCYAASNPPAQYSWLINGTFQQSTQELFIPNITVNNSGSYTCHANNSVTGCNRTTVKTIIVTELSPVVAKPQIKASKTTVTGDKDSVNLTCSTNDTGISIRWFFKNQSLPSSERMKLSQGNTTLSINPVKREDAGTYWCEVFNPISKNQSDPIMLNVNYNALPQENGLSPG
Assay: ELISA, coated recombinant CEACAM1, anti-human IgG-HRP detection
Procedure: Then, each well was washed 3 times with a washing buffer prepared by diluting 10 μl of Tween 20 (Sigma-Aldrich; Cat. No. P9146) in 990 μl of PBS.

B1: C25 (antibody, human IgG4 S228P, lambda, V domains shown)
VH: EVQLLESGGGLVQPGGSLRLSCAASGFTFSNYAMSWVRQAPGKGLEWVSVISHGGGSIYYADSVKGRLTISRDNSKNTLYLQMNSLRAEDTAVYYCARDPTKGYAPTFDYWGQGTLVTVSS
VL: QSVLTQPPSASGTPGQRVTISCSGSSSNIGNNYVSWYQQLPGTAPKLLIYADSKRPSGVPDRFSGSKSGTSASLAISGLRSEDEADYYCGAWDASLNGYVFGGGTKLTVLG
notes: Made in ExpiHEK293F cells, protein A purified. huIgG4 is the isotype control and anti-huIgG4 the detection reagent; the isotype is not otherwise stated; also called anti-CEACAM1 antibody C25
EC50: 0.35 nM
